# Reference: patent publication CN114044821A (INST MILITARY MEDICINE ACADEMY MILITARY SCIENCES PLA, dated 2022)
# B1: 抗SARS-CoV-2全人源单克隆抗体ZWC12 (antibody, V domains shown)
# VH: EVQLVESGGALVQPGGSLRLSCAASGFTFANYAMSWVRQAPGKGLEWVSSMTGSSIDSYYADSVKGRFTISRDNSRNTLYLQMNSLRAEDTAVYYCAKGELLWFGDLLHNWFDPWGRGTLVTVSS
# VL: DIVMTQSPATLSVSPGERATLSCRASQSVSTNLAWYQQKPGQAPRLLIHGASTRATGLPARFSGSGSGTEFTLTISSLQSEDFAVYFCQQYDSWPGTFGPGTKVDIKR
# Target: 新冠病毒野生型刺突蛋白(S蛋白)，在假病毒/真病毒表面 (SARS-CoV-2, UniProt P0DTC2 14-1273)
# Experiment: cell-based or functional assay
binder,measurement,value
B1,"假病毒中和 EC50 (luciferase, HEK293T)",1.04 µg/mL
same,"真病毒中和 EC50 (Vero E6, crystal violet)",25 µg/mL
